Substitutions are numbered along the chain they refer to.
B1: Y-Aib-EGT-αMeF(2F)-TSD-4Pal-SI-αMeL-LD-Orn-K((γ-Glu)-(2-[2-(2-Amino-ethoxy)-ethoxy]-acetyl)-CO-(CH2)12-CO2H)AQ-Aib-EFI-(D-Glu)-αMeY-LIEGGK((γ-Glu)-(2-[2-(2-Amin … (peptide)
peptide: YXEGTXTSDXSIXLDXKAQXEFIXXLIEGGKSSGAPPPS
modifications: Aib2, αMeF(2F)6, 4Pal10, αMeL13, Orn16, Aib20, D-Glu24, αMeY25; acylated K17, K31 (groups as in name); C-terminal amide
B2: Y-Aib-EGT-αMeF(2F)-TSD-4Pal-SI-αMeL-LD-Orn-K((2-[2-(2-Amino-ethoxy)-ethoxy]-acetyl)2-(γ-Glu)-CO-(CH2)10-CH3)AQ-Aib-EFI-(D-Glu)-αMeY-LIEGGK((2-[2-(2-Amino-ethoxy … (peptide)
peptide: B1 peptide
modifications: Aib2, αMeF(2F)6, 4Pal10, αMeL13, Orn16, Aib20, D-Glu24, αMeY25; acylated K17, K31 (groups as in name); C-terminal amide
B3: Y-Aib-EGT-αMeF(2F)-TSD-4Pal-SI-αMeL-LD-Orn-K((2-[2-(2-Amino-ethoxy)-ethoxy]-acetyl)2-(γ-Glu)-(4-(4-tert-butylphenyl)butanoyl))AQ-Aib-EFI-(D-Glu)-αMeY-LIK((2-[2- … (peptide)
peptide: B1 peptide with E28K, K31P
modifications: Aib2, αMeF(2F)6, 4Pal10, αMeL13, Orn16, Aib20, D-Glu24, αMeY25; acylated K17, K28 (groups as in name); C-terminal amide
B4: Y-Aib-EGT-αMeF(2F)-TSD-4Pal-SI-αMeL-LD-Orn-K((γ-Glu)-(2-[2-(2-Amino-ethoxy)-ethoxy]-acetyl)2-CO-(CH2)12-CO2H)AQ-Aib-EFI-(D-Glu)-αMeY-LIEGGK((γ-Glu)-(2-[2-(2-Ami … (peptide)
peptide: B1 peptide
modifications: Aib2, αMeF(2F)6, 4Pal10, αMeL13, Orn16, Aib20, D-Glu24, αMeY25; acylated K17, K31 (groups as in name); C-terminal amide
B5: Y-Aib-EGT-αMeF(2F)-TSD-4Pal-SI-αMeL-LD-Orn-K((2-[2-(2-Amino-ethoxy)-ethoxy]-acetyl)-(γ-Glu)-(2-[2-(2-Amino-ethoxy)-ethoxy]-acetyl)-CO-(CH2)12-CO2H)AQ-Aib-EFI-(D … (peptide)
peptide: B1 peptide
modifications: Aib2, αMeF(2F)6, 4Pal10, αMeL13, Orn16, Aib20, D-Glu24, αMeY25; acylated K17, K31 (groups as in name); C-terminal amide
B6: Y-Aib-EGT-αMeF(2F)-TSD-4Pal-SI-αMeL-LD-Orn-K((εK)-(2-[2-(2-Amino-ethoxy)-ethoxy]-acetyl)-(γ-Glu)-CO-(CH2)12-CO2H)AQ-Aib-EFI-(D-Glu)-αMeY-LIEGGK((εK)-(2-[2-(2-Am … (peptide)
peptide: B1 peptide
modifications: Aib2, αMeF(2F)6, 4Pal10, αMeL13, Orn16, Aib20, D-Glu24, αMeY25; acylated K17, K31 (groups as in name); C-terminal amide
B7: Y-Aib-EGT-αMeF(2F)-TSD-4Pal-SI-αMeL-LD-Orn-K((2-[2-(2-Amino-ethoxy)-ethoxy]-acetyl)2-(γ-Glu)-CO-(CH2)14-CH3)AQ-Aib-EFI-(D-Glu)-αMeY-LIK((2-[2-(2-Amino-ethoxy)-e … (peptide)
peptide: B1 peptide with E28K, K31P
modifications: Aib2, αMeF(2F)6, 4Pal10, αMeL13, Orn16, Aib20, D-Glu24, αMeY25; acylated K17, K28 (groups as in name); C-terminal amide
B8: Y-Aib-EGT-αMeF(2F)-TSD-4Pal-SI-αMeL-LD-Orn-K((εK)-(γ-Glu)-CO-(CH2)12-CO2H)AQ-Aib-EFI-(D-Glu)-αMeY-LIEGGK((εK)-(γ-Glu)-CO-(CH2)12-CO2H)SSGAPPPS-NH2 (peptide)
peptide: B1 peptide
modifications: Aib2, αMeF(2F)6, 4Pal10, αMeL13, Orn16, Aib20, D-Glu24, αMeY25; acylated K17, K31 (groups as in name); C-terminal amide
B9: Y-Aib-EGT-αMeF(2F)-TSD-4Pal-SI-αMeL-LD-Orn-IAQ-Aib-K((2-[2-(2-Amino-ethoxy)-ethoxy]-acetyl)2-(γ-Glu)-CO-(CH2)12-CO2H)FI-(D-Glu)-αMeY-LIK((2-[2-(2-Amino-ethoxy)- … (peptide)
peptide: B1 peptide with K17I, E21K, E28K, K31P
modifications: Aib2, αMeF(2F)6, 4Pal10, αMeL13, Orn16, Aib20, D-Glu24, αMeY25; acylated K21, K28 (groups as in name); C-terminal amide
B10: Y-Aib-EGT-αMeF(2F)-TSD-4Pal-SI-αMeL-LD-Orn-K((2-[2-(2-Amino-ethoxy)-ethoxy]-acetyl)2-(εK)-CO-(CH2)12-CO2H)AQ-Aib-EFI-(D-Glu)-αMeY-LIEGGK((2-[2-(2-Amino-ethoxy)- … (peptide)
peptide: B1 peptide
modifications: Aib2, αMeF(2F)6, 4Pal10, αMeL13, Orn16, Aib20, D-Glu24, αMeY25; acylated K17, K31 (groups as in name); C-terminal amide
B11: Y-Aib-EGT-αMeF(2F)-TSD-4Pal-SI-αMeL-LD-Orn-K((2-[2-(2-Amino-ethoxy)-ethoxy]-acetyl)-(γ-Glu)-CO-(CH2)14-CH3)AQ-Aib-EFI-(D-Glu)-αMeY-LIEGGK((2-[2-(2-Amino-ethoxy) … (peptide)
peptide: B1 peptide
modifications: Aib2, αMeF(2F)6, 4Pal10, αMeL13, Orn16, Aib20, D-Glu24, αMeY25; acylated K17, K31 (groups as in name); C-terminal amide
B12: Y-Aib-EGT-αMeF-TSD-4Pal-SI-αMeL-LD-Orn-K((2-[2-(2-Amino-ethoxy)-ethoxy]-acetyl)2-(γ-Glu)-CO-(CH2)12-CO2H)AQ-Aib-EFI-(D-Glu)-αMeY-LIEGGK((2-[2-(2-Amino-ethoxy)-e … (peptide)
peptide: B1 peptide
modifications: Aib2, αMeF6, 4Pal10, αMeL13, Orn16, Aib20, D-Glu24, αMeY25; acylated K17, K31 (groups as in name); C-terminal amide
B13: Y-Aib-EGT-αMeF(2F)-TSD-4Pal-SI-αMeL-LD-Orn-K((εK)-(εK)-(γ-Glu)-CO-(CH2)12-CO2H)AQ-Aib-EFI-(D-Glu)-αMeY-LIEGGK((εK)-(εK)-(γ-Glu)-CO-(CH2)12-CO2H)SSGAPPPS-NH2 (peptide)
peptide: B1 peptide
modifications: Aib2, αMeF(2F)6, 4Pal10, αMeL13, Orn16, Aib20, D-Glu24, αMeY25; acylated K17, K31 (groups as in name); C-terminal amide
B14: Y-Aib-EGT-αMeF(2F)-TSD-4Pal-SI-αMeL-LD-Orn-K((2-[2-(2-Amino-ethoxy)-ethoxy]-acetyl)-(γ-Glu)-CO-(CH2)12-CO2H)AQ-Aib-EFI-(D-Glu)-αMeY-LIEGGK((2-[2-(2-Amino-ethoxy … (peptide)
peptide: B1 peptide
modifications: Aib2, αMeF(2F)6, 4Pal10, αMeL13, Orn16, Aib20, D-Glu24, αMeY25; acylated K17, K31 (groups as in name); C-terminal amide
B15: Y-Aib-EGT-αMeF(2F)-TSD-4Pal-SI-αMeL-LD-Orn-K((2-[2-(2-Amino-ethoxy)-ethoxy]-acetyl)-(γ-Glu)-(10-(4-carboxyphenoxy)decanoyl))AQ-Aib-EFI-(D-Glu)-αMeY-LIEGGK((2-[2 … (peptide)
peptide: B1 peptide
modifications: Aib2, αMeF(2F)6, 4Pal10, αMeL13, Orn16, Aib20, D-Glu24, αMeY25; acylated K17, K31 (groups as in name); C-terminal amide
B16: Y-Aib-EGT-αMeF(2F)-TSDK((2-[2-(2-Amino-ethoxy)-ethoxy]-acetyl)2-(γ-Glu)-CO-(CH2)14-CH3)SI-αMeL-LD-Orn-K((2-[2-(2-Amino-ethoxy)-ethoxy]-acetyl)2-(γ-Glu)-CO-(CH2) … (peptide)
peptide: B1 peptide with X10K, K31P
modifications: Aib2, αMeF(2F)6, αMeL13, Orn16, Aib20, D-Glu24, αMeY25; acylated K10, K17 (groups as in name); C-terminal amide
B17: Y-Aib-EGT-αMeF(2F)-TSD-4Pal-SI-αMeL-LD-Orn-K((2-[2-(2-Amino-ethoxy)-ethoxy]-acetyl)2-(γ-Glu)-CO-(CH2)12-CH3)AQ-Aib-EFI-(D-Glu)-αMeY-LIEGGK((2-[2-(2-Amino-ethoxy … (peptide)
peptide: B1 peptide
modifications: Aib2, αMeF(2F)6, 4Pal10, αMeL13, Orn16, Aib20, D-Glu24, αMeY25; acylated K17, K31 (groups as in name); C-terminal amide
B18: Y-Aib-EGT-αMeF(2F)-TSD-4Pal-SI-αMeL-LD-Orn-K((2-[2-(2-Amino-ethoxy)-ethoxy]-acetyl)2-(γ-Glu)-CO-(CH2)12-CO2H)AQ-Aib-EFIK((2-[2-(2-Amino-ethoxy)-ethoxy]-acetyl)2 … (peptide)
peptide: B1 peptide with X24K, K31P
modifications: Aib2, αMeF(2F)6, 4Pal10, αMeL13, Orn16, Aib20, αMeY25; acylated K17, K24 (groups as in name); C-terminal amide
B19: Y-Aib-EGT-αMeF(2F)-TSD-4Pal-SI-αMeL-LD-Orn-K((2-[2-(2-Amino-ethoxy)-ethoxy]-acetyl)2-(γ-Glu)-CO-(CH2)12-CO2H)AQ-Aib-EFI-(D-Glu)-αMeY-LIK((2-[2-(2-Amino-ethoxy)- … (peptide)
peptide: B1 peptide with E28K, K31P
modifications: Aib2, αMeF(2F)6, 4Pal10, αMeL13, Orn16, Aib20, D-Glu24, αMeY25; acylated K17, K28 (groups as in name); C-terminal amide
B20: Y-Aib-EGT-αMeF(2F)-TSD-4Pal-SI-αMeL-LD-Orn-K((2-[2-(2-Amino-ethoxy)-ethoxy]-acetyl)2-(γ-Glu)-CO-(CH2)12-CO2H)AQ-Aib-EFI-(D-Glu)-αMeY-LIEGGP S SGAPPP … (peptide)
peptide: YXEGTXTSDXSIXLDXKAQXEFIXXLIEGGPSSGAPPPSK
modifications: Aib2, αMeF(2F)6, 4Pal10, αMeL13, Orn16, Aib20, D-Glu24, αMeY25; acylated K17, K40 (groups as in name); C-terminal amide
B21: Y-Aib-EGT-αMeF(2F)-TSD-4Pal-SI-αMeL-LD-Orn-IAQ-Aib-K((2-[2-(2-Amino-ethoxy)-ethoxy]-acetyl)2-(γ-Glu)-CO-(CH2)12-CO2H)FI-(D-Glu)-αMeY-LIEGGPSSGAPPPSK((2-[2-(2-Am … (peptide)
peptide: B20 peptide with K17I, E21K
modifications: Aib2, αMeF(2F)6, 4Pal10, αMeL13, Orn16, Aib20, D-Glu24, αMeY25; acylated K21, K40 (groups as in name); C-terminal amide
B22: Y-Aib-EGT-αMeF(2F)-TSD-4Pal-SI-αMeL-LD-Orn-K((2-[2-(2-Amino-ethoxy)-ethoxy]-acetyl)2-(γ-Glu)-CO-(CH2)14-CH3)AQ-Aib-EFI-(D-Glu)-αMeY-LIEGGPSSGAPPPSK((2-[2-(2-Ami … (peptide)
peptide: B20 peptide
modifications: Aib2, αMeF(2F)6, 4Pal10, αMeL13, Orn16, Aib20, D-Glu24, αMeY25; acylated K17, K40 (groups as in name); C-terminal amide

Biological target: human glucagon receptor (human, UniProt P47871 26-477)
Test: cell-based or functional assay

| Binder | cAMP EC50 (1.0% HSA) [µM] |
| --- | --- |
| B1 | > 9.95 |
| B2 | > 9.95 |
| B3 | > 9.95 |
| B4 | > 9.95 |
| B5 | > 9.95 |
| B6 | > 9.95 |
| B7 | > 9.95 |
| B8 | > 9.95 |
| B9 | > 9.95 |
| B10 | > 9.95 |
| B11 | > 9.95 |
| B12 | > 9.95 |
| B13 | > 9.95 |
| B14 | > 9.95 |
| B15 | > 9.95 |
| B16 | > 9.95 |
| B17 | > 9.95 |
| B18 | > 9.95 |
| B19 | > 9.95 |
| B20 | > 9.95 |
| B21 | > 9.95 |
| B22 | > 9.95 |

Reference: patent publication US20230265151A1, “GIP/GLP1 CO-AGONIST COMPOUNDS” (priority 2020, published 2023)
